Substrate in this data set: CC(=O)N[C@@H](CCC(=O)O)C(=O)O
Description: purified protein, by the assay type. As to conditions: pH 7.5.

Among the data in publication PMC5768801, “The PII signaling protein from red algae represents an evolutionary link between cyanobacterial and Chloroplastida PII proteins” (Scientific Reports, 2018) are Km values, retold here.

B1: ScNAGK (Synechocystis sp. PCC 6803 substr. Kazusa) (protein)
chain: MSSTQDYIGEEAATRVKILSEALPYIQHFAGRTVVVKYGGAAMKDSNLKDKVIRDIVFMASVGIRPVVVHGGGPEINTWLDKVGIEPQFKDGLRVTDAATMDIVEMVLVGRVNKELVNLINQAGGKAVGLCGKDGQLMTARTMTNKDVGFVGEVSSVDARVVETLVKSGYIPVISSVAADEFGQAHNINADTCAGELAAALGAEKLILLTDTRGILRDYKDPSTLIHKLDIQQARELIGSGIVAGGMIPKVTCCVRSLAQGVRAAHILDGRLPHALLLEVFTDLGIGSMIVASGYDL
The Km is the substrate concentration at which the rate is half of its maximum. With B1, the Km stood at 16.23 mM.
